Patent US20230057987A1 (published 2023)

T1: similar peptide SP-05-0002, source protein not stated peptide on HLA-A*02:01 (human)
T1 peptide: KIFSGLLKV

T2: similar peptide SP-05-0003, source protein not stated peptide on HLA-A*02:01 (human)
T2 peptide: KVTEMLVNV

T3: similar peptide SP-05-0004, source protein not stated peptide on HLA-A*02:01 (human)
T3 peptide: KIWEWLVGV

T4: similar peptide SP-05-0005, source protein not stated peptide on HLA-A*02:01 (human)
T4 peptide: KIEEFLEAV

T5: similar peptide SP-05-0006, source protein not stated peptide on HLA-A*02:01 (human)
T5 peptide: KIAELLENV

T6: similar peptide SP-05-0007, source protein not stated peptide on HLA-A*02:01 (human)
T6 peptide: KIFPALCTV

T7: similar peptide SP-05-0008, source protein not stated peptide on HLA-A*02:01 (human)
T7 peptide: KILDELEKV

T8: similar peptide SP-05-0009, source protein not stated peptide on HLA-A*02:01 (human)
T8 peptide: KIIDLLPKV

T9: similar peptide SP-05-0010, source protein not stated peptide on HLA-A*02:01 (human)
T9 peptide: RIFETVNSV

T10: CT45-IP alanine variant, position 8 peptide on HLA-A*02:01 (human)
T10 peptide: KIFEMLEAV

T11: similar peptide SP-05-0001, source protein not stated peptide on HLA-A*02:01 (human)
T11 peptide: HIMEHLEGV

T12: CT45 (CT45A1, A2, A3, A5 to A10); CT45-IP peptide on HLA-A*02:01 (human)
T12 peptide: KIFEMLEGV

T13: CT45-IP alanine variant, position 1 peptide on HLA-A*02:01 (human)
T13 peptide: AIFEMLEGV

T14: CT45-IP alanine variant, position 5 peptide on HLA-A*02:01 (human)
T14 peptide: KIFEALEGV


How the values were obtained:
[1] = biological target: CT45-IP antigenic peptide (…) in complex with HLA-A*02 presented on cells (peptide-loaded T2 cells; NCIH1703 and A375 tumor cells) (human); assay: cell-based or functional assay
[2] = biological target: T1, similar peptide SP-05-0002, source …; assay: killing
[3] = biological target: T2, similar peptide SP-05-0003, source …; assay: killing
[4] = biological target: T3, similar peptide SP-05-0004, source …; assay: killing
[5] = biological target: T4, similar peptide SP-05-0005, source …; assay: killing
[6] = biological target: T5, similar peptide SP-05-0006, source …; assay: killing
[7] = biological target: T6, similar peptide SP-05-0007, source …; assay: killing
[8] = biological target: T7, similar peptide SP-05-0008, source …; assay: killing
[9] = biological target: T8, similar peptide SP-05-0009, source …; assay: killing
[10] = biological target: T9, similar peptide SP-05-0010, source …; assay: killing
[11] = biological target: T10, CT45-IP alanine variant, position 8 …; assay: killing
[12] = biological target: T11, similar peptide SP-05-0001, source …; assay: killing
[13] = biological target: CT45-IP-HLA-A*02 dextramer (human); assay: flow cytometry, dextramer staining of TCR-mRNA electroporated T cells, gated on CD3+
[14] = biological target: T12, CT45 (CT45A1, A2, A3, A5 to A10); …; assay: luciferase release, 24 h, 1:1; CD8+ T cells with TCR mRNA, T2 cells with titrated peptide; full-length, on cells
[15] = biological target: T12, CT45 (CT45A1, A2, A3, A5 to A10); …; assay: CT45-IP-HLA-A*02 dextramer on T cells with TCR mRNA; TCR found by tetramer sorting; full-length, on cells
[16] = biological target: T13, CT45-IP alanine variant, position 1 …; assay: killing
[17] = biological target: T14, CT45-IP alanine variant, position 5 …; assay: killing

Row | surface expression, % positive events by CT45-IP-HLA-A2*02 dextramer staining [13] | EC50 of peptide [14] | dextramer-positive events [15] | Binder | EC50, half maximal killing capacity (functional avidity; CT45-IP peptide titration on T2 cells, luciferase release) [1] | binding result [2] | binding result [3] | binding result [4] | binding result [5] | binding result [6] | binding result [7] | binding result [8] | binding result [9] | binding result [10] | binding result [11] | binding result [12] | binding result [16] | binding result [17]
1 | 8.9% | 7.78 nM | 8.9% | TCR-1 (TCR, V domains shown) Valpha: QTVTQSQPEMSVQEAETVTLSCTYDTSENNYYLFWYKQPPSRQMILVIRQEAYKQQNATENRFSVNFQKAAKSFSLKISDSQLGDTAMYFCAPLGLVAGSARQLTFGSGTQLTVLP Vbeta: GVSQDPRHKITKRGQNVTFRCDPISEHNRLYWYRQTLGQGPEFLTYFQNEAQLEKSRLLSDRFSAERPKGSFSTLEIQRTEQGDSAMYLCASSTDITSYEQYFGPGTRLTVT | 7.78 nM | no recognition | no recognition | no recognition | no recognition | no recognition | no recognition | no recognition | no recognition | no recognition | recognises | no recognition |  | 
2 | 27.2% | 1.02 nM | 27.2% | TCR-3 (TCR, V domains shown) Valpha: QKITQTQPGMFVQEKEAVTLDCTYDTSDQSYGLFWYKQPSSGEMIFLIYQGSYDEQNATEGRYSLNFQKARKSANLVISASQLGDSAMYFCGYSNYQLIWGAGTKLIIKP Vbeta: QVTQNPRYLITVTGKKLTVTCSQNMNHEYMSWYRQDPGLGLRQIYYSMNVEVTDKGDVPEGYKVSRKEKRNFPLILESPSPNQTSLYFCASREGTGGYQPQHFGDGTRLSIL | 1.02 nM | no recognition | no recognition | no recognition | no recognition | no recognition | no recognition | no recognition | no recognition | no recognition | recognises | no recognition | recognises | 
3 | 53.1% | 11.4 nM | 53.1% | TCR-13 (TCR, V domains shown) Valpha: QKITQTQPGMFVQEKEAVTLDCTYDTSDQSYGLFWYKQPSSGEMIFLIYQGSYDEQNATEGRYSLNFQKARKSANLVISASQLGDSAMYFCAMSDPIMDTGRRALTFGSGTRLQVQP Vbeta: GITQSPKYLFRKEGQNVTLSCEQNLNHDAMYWYRQDPGQGLRLIYYSQIVNDFQKGDIAEGYSVSREKKESFPLTVTSAQKNPTAFYLCASKSRGPNLADTQYFGPGTRLTVL | 11.4 nM | no recognition | no recognition | no recognition | no recognition | no recognition | no recognition | no recognition | no recognition | no recognition | recognises | no recognition |  | recognises
4 | 44% | 0.15 nM | 44% | TCR-9 (TCR, V domains shown) Valpha: EDVEQSLFLSVREGDSSVINCTYTDSSSTYLYWYKQEPGAGLQLLTYIFSNMDMKQDQRLTVLLNKKDKHLSLRIADTQTGDSAIYFCAEKETAGNKLTFGGGTRVLVKP Vbeta: EPEVTQTPSHQVTQMGQEVILRCVPISNHLYFYWYRQILGQKVEFLVSFYNNEISEKSEIFDDQFSVERPDGSNFTLKIRSTKLEDSAMYFCASTVQSPRTNEQFFGPGTRLTVL | 0.15 nM | no recognition | no recognition |  | no recognition | no recognition | no recognition | no recognition | no recognition | no recognition |  | no recognition |  | 
5 | 39.1% | 4.69 nM | 39.1% | TCR-2 (TCR, V domains shown) Valpha: QKITQTQPGMFVQEKEAVTLDCTYDTSDQSYGLFWYKQPSSGEMIFLIYQGSYDEQNATEGRYSLNFQKARKSANLVISASQLGDSAMYFCAMREGSDAGGTSYGKLTFGQGTILTVHP Vbeta: GVIQSPRHLIKEKRETATLKCYPIPRHDTVYWYQQGPGQDPQFLISFYEKMQSDKGSIPDRFSAQQFSDYHSELNMSSLELGDSALYFCASSPSTGRLNTEAFFGQGTRLTVV | 4.69 nM | no recognition | no recognition | no recognition | no recognition | no recognition | no recognition | no recognition | no recognition | no recognition | recognises | no recognition | recognises | 
6 | 22.6% | 18.6 nM | 22.6% | TCR-15 (TCR, V domains shown) Valpha: KQEVTQIPAALSVPEGENLVLNCSFTDSAIYNLQWFRQDPGKGLTSLLLIQSSQREQTSGRLNASLDKSSGRSTLYIAASQPGDSATYLCAVLLTGKLIFGQGTTLQVKP Vbeta: GVTQTPRYLIKTRGQQVTLSCSPISGHRSVSWYQQTPGQGLQFLFEYFSETQRNKGNFPGRFSGRQFSNSRSEMNVSTLELGDSALYLCASSGGPGPSGEQYFGPGTRLTVT | 18.6 nM | no recognition | no recognition | no recognition | no recognition | no recognition | no recognition | no recognition | no recognition | no recognition | recognises | no recognition |  | 
7 | 39.1% | 1.31 nM | 39.1% | TCR-4 (TCR, V domains shown) Valpha: QSVAQPEDQVNVAEGNPLTVKCTYSVSGNPYLFWYVQYPNRGLQFLLKYITGDNLVKGSYGFEAEFNKSQTSFHLKKPSALVSDSALYFCAAPRDDKIIFGKGTRLHILP Vbeta: GVTQTPKFRVLKTGQSMTLLCAQDMNHEYMYWYRQDPGMGLRLIHYSVGEGTTAKGEVPDGYNVSRLKKQNFLLGLESAAPSQTSVYFCASSYLRTGGNEQFFGPGTRLTVL | 1.31 nM | no recognition | no recognition | no recognition | no recognition | no recognition | no recognition | no recognition | no recognition | no recognition |  | no recognition | recognises | recognises
